We go through 17 molecules from patent US20240400701A1 (LANOVA MEDICINES DEVELOPMENT, published 2024).

First the molecules themselves.
T1: human AMHRII (anti-Mullerian hormone receptor type 2) (human, UniProt Q16671 18-573)
T1 construct: whole, on cells; also called AMHR2; human AMHR2
T1 sequence (looked up): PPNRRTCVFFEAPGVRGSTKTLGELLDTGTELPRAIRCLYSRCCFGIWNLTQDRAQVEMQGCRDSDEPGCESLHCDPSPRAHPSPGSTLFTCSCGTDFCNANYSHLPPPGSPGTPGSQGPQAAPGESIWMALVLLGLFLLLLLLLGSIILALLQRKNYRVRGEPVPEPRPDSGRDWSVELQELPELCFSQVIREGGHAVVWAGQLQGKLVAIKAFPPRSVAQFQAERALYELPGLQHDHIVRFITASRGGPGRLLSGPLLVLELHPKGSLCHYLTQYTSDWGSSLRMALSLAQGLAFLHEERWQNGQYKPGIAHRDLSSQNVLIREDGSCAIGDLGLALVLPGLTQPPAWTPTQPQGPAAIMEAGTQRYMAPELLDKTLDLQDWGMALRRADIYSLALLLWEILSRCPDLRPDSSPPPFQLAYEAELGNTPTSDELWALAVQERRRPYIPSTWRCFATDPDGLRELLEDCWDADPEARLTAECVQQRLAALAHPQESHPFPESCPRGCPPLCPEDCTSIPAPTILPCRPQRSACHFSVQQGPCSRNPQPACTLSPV

B1: 108F3D1E9 H2L2 hIgG1 (antibody, V domains shown)
VH: QLQLQESGPGLVKPSETLSLTCTVSGYSITSDFAWNWIRQPPGKGLEWMGYISFSGSTSYNPSLKSRVTISRDTSKNQFSLKLSSVTAADTAVYYCAGSRYSWFAYWGQGTLVTVSS
VL: DIQLTQSPSSLSASVGDRVTITCRASESVDTYGNSFMHWYQQKPGKPPKLLIYRASNLESGIPSRFSGSGSGTDFTLTISSLQPEDFATYYCQQSNEDPYTFGGGTKVEIK
notes: Humanized, human IgG1; also called 108F3D1E9 H2L2 hlgG1
B2: 94C4C3 H2L2 hIgG1 (antibody, V domains shown)
VH: QLQLQESGPGLVKPSETLSLTCTVSGYSITSDYAWNWIRQPPGKGLEWMGYISYSGSISYNPSLKSRITISRDTSKNQFSLKLSSVTAADTAVYYCARSRYSWFDYWGQGTLVTVSS
VL: EIVLTQSPGTLSLSPGERATLSCSASESVDTYGNSFMHWYQQKPGQPPRLLIYRASSLESGIPVRFSGSGSRTDFTLTISRLEPEDFAVYYCQQSNEDPYTFGGGTKVEIK
notes: Humanized, human IgG1; also called 94C4C3 H2L2 hlgG1
B3: 94C4C3 H1L2 hIgG1 (antibody, V domains shown)
VH: QLQLQESGPGLVKPSETLSLTCTVSGYSITSDYAWNWIRQPPGKGLEWIGYISYSGSISYNPSLKSRVTISVDTSKNQFSLKLSSVTAADTAVYYCARSRYSWFDYWGQGTLVTVSS
VL: EIVLTQSPGTLSLSPGERATLSCSASESVDTYGNSFMHWYQQKPGQPPRLLIYRASSLESGIPVRFSGSGSRTDFTLTISRLEPEDFAVYYCQQSNEDPYTFGGGTKVEIK
notes: Humanized, human IgG1; also called 94C4C3 H1L2 hlgG1
B4: 108F3D1E9 H1L2 hIgG1 (antibody, V domains shown)
VH: QLQLQESGPGLVKPSETLSLTCTVSGYSITSDFAWNWIRQPPGKGLEWIGYISFSGSTSYNPSLKSRVTISVDTSKNQFSLKLSSVTAADTAVYYCARSRYSWFAYWGQGTLVTVSS
VL: DIQLTQSPSSLSASVGDRVTITCRASESVDTYGNSFMHWYQQKPGKPPKLLIYRASNLESGIPSRFSGSGSGTDFTLTISSLQPEDFATYYCQQSNEDPYTFGGGTKVEIK
notes: Humanized, human IgG1; also called 108F3D1E9 H1L2 hlgG1
B5: 94C4C3 H1L4 hIgG1 (antibody, V domains shown)
VH: QLQLQESGPGLVKPSETLSLTCTVSGYSITSDYAWNWIRQPPGKGLEWIGYISYSGSISYNPSLKSRVTISVDTSKNQFSLKLSSVTAADTAVYYCARSRYSWFDYWGQGTLVTVSS
VL: DIVLTQSPGTLSVSPGERATLSCSASESVDTYGNSFMHWYQQKPGQPPKLLIYRASSLESGIPVRFSGSGSRTDFTLTISRVEAEDFAVYYCQQSNEDPYTFGGGTKLEIK
notes: Humanized, human IgG1; also called 94C4C3 H1L4 hlgG1
B6: 108F3D1E9 H2L4 hIgG1 (antibody, V domains shown)
VH: QLQLQESGPGLVKPSETLSLTCTVSGYSITSDFAWNWIRQPPGKGLEWMGYISFSGSTSYNPSLKSRVTISRDTSKNQFSLKLSSVTAADTAVYYCAGSRYSWFAYWGQGTLVTVSS
VL: DIVLTQSPSSLSVSVGDRATITCRASESVDTYGNSFMHWYQQKPGQPPKLLIYRASNLESGIPARFSGSGSRTDFTLTISSVQPEDFATYYCQQSNEDPYTFGGGTKLEIK
notes: Humanized, human IgG1; also called 108F3D1E9 H2L4 hlgG1
B7: 94C4C3 H1L3 hIgG1 (antibody, V domains shown)
VH: QLQLQESGPGLVKPSETLSLTCTVSGYSITSDYAWNWIRQPPGKGLEWIGYISYSGSISYNPSLKSRVTISVDTSKNQFSLKLSSVTAADTAVYYCARSRYSWFDYWGQGTLVTVSS
VL: EIVLTQSPGTLSLSPGERATLSCSASESVDTYGNSFMHWYQQKPGQPPRLLIYRASSLESGIPVRFSGSGSRTDFTLTISRVEAEDFAVYYCQQSNEDPYTFGGGTKLEIK
notes: Humanized, human IgG1; also called 94C4C3 H1L3 hlgG1
B8: 108F3D1E9 H2L3 hIgG1 (antibody, V domains shown)
VH: QLQLQESGPGLVKPSETLSLTCTVSGYSITSDFAWNWIRQPPGKGLEWMGYISFSGSTSYNPSLKSRVTISRDTSKNQFSLKLSSVTAADTAVYYCAGSRYSWFAYWGQGTLVTVSS
VL: DIVLTQSPSSLSASVGDRVTITCRASESVDTYGNSFMHWYQQKPGQPPKLLIYRASNLESGIPARFSGSGSGTDFTLTISSVQPEDFATYYCQQSNEDPYTFGGGTKVEIK
notes: Humanized, human IgG1; also called 108F3D1E9 H2L3 hlgG1
B9: 108F3D1E9 H2L1 hIgG1 (antibody, V domains shown)
VH: QLQLQESGPGLVKPSETLSLTCTVSGYSITSDFAWNWIRQPPGKGLEWMGYISFSGSTSYNPSLKSRVTISRDTSKNQFSLKLSSVTAADTAVYYCAGSRYSWFAYWGQGTLVTVSS
VL: DIQMTQSPSSLSASVGDRVTITCRASESVDTYGNSFMHWYQQKPGKAPKLLIYRASNLESGVPSRFSGSGSGTDFTLTISSLQPEDFATYYCQQSNEDPYTFGGGTKVEIK
notes: Humanized, human IgG1; also called 108F3D1E9 H2L1 hlgG1
B10: 108F3D1E9 H1L3 hIgG1 (antibody, V domains shown)
VH: QLQLQESGPGLVKPSETLSLTCTVSGYSITSDFAWNWIRQPPGKGLEWIGYISFSGSTSYNPSLKSRVTISVDTSKNQFSLKLSSVTAADTAVYYCARSRYSWFAYWGQGTLVTVSS
VL: DIVLTQSPSSLSASVGDRVTITCRASESVDTYGNSFMHWYQQKPGQPPKLLIYRASNLESGIPARFSGSGSGTDFTLTISSVQPEDFATYYCQQSNEDPYTFGGGTKVEIK
notes: Humanized, human IgG1; also called 108F3D1E9 H1L3 hlgG1
B11: 108F3D1E9 H1L4 hIgG1 (antibody, V domains shown)
VH: QLQLQESGPGLVKPSETLSLTCTVSGYSITSDFAWNWIRQPPGKGLEWIGYISFSGSTSYNPSLKSRVTISVDTSKNQFSLKLSSVTAADTAVYYCARSRYSWFAYWGQGTLVTVSS
VL: DIVLTQSPSSLSVSVGDRATITCRASESVDTYGNSFMHWYQQKPGQPPKLLIYRASNLESGIPARFSGSGSRTDFTLTISSVQPEDFATYYCQQSNEDPYTFGGGTKLEIK
notes: Humanized, human IgG1; also called 108F3D1E9 H1L4 hlgG1
B12: 31D9B3 VH1-VL2.1 hIgG1 (antibody, V domains shown)
VH: QVQLVQSGAEVKKPGASVKVSCKASGYTFTDYWVSWVRQAPGQGLEWMGEIYPKNGVSNFNEKFKGRVTMTTDTSTSTAYMELRSLRSDDTAVYYCARQRDYWGQGTLVTVSS
VL: DVVMTQSPLSLPVTLGQPASISCRSSQSLEYGSGYTYLEWYLQRPGQSPRLLIYGVSNRFSGVPDRFSGSGSGTDFTLKISRVEAEDVGVYYCFQATHDPNTFGQGTKLEIK
notes: Humanized, PTM de-risked (VL D(30C)S), human IgG1; also called 31D9B3 VH1-VL2.1 hlgG1
B13: 31D9B3 VH1-VL2.3 hIgG1 (antibody, V domains shown)
VH: QVQLVQSGAEVKKPGASVKVSCKASGYTFTDYWVSWVRQAPGQGLEWMGEIYPKNGVSNFNEKFKGRVTMTTDTSTSTAYMELRSLRSDDTAVYYCARQRDYWGQGTLVTVSS
VL: DVVMTQSPLSLPVTLGQPASISCRSSQSLEYGTGYTYLEWYLQRPGQSPRLLIYGVSNRFSGVPDRFSGSGSGTDFTLKISRVEAEDVGVYYCFQATHDPNTFGQGTKLEIK
notes: Humanized, PTM de-risked (VL D(30C)T), human IgG1; also called 31D9B3 VH1-VL2.3 hlgG1
B14: 31D9B3 VH1.1-VL2.3 hIgG1 (antibody, V domains shown)
VH: QVQLVQSGAEVKKPGASVKVSCKASGYTFTDYWVSWVRQAPGQGLEWMGEIYPKEGVSNFNEKFKGRVTMTTDTSTSTAYMELRSLRSDDTAVYYCARQRDYWGQGTLVTVSS
VL: DVVMTQSPLSLPVTLGQPASISCRSSQSLEYGTGYTYLEWYLQRPGQSPRLLIYGVSNRFSGVPDRFSGSGSGTDFTLKISRVEAEDVGVYYCFQATHDPNTFGQGTKLEIK
notes: Humanized, PTM de-risked, human IgG1; also called 31D9B3 VH1.1-VL2.3 hlgG1
B15: 31D9B3 VH1.1-VL2.2 hIgG1 (antibody, V domains shown)
VH: QVQLVQSGAEVKKPGASVKVSCKASGYTFTDYWVSWVRQAPGQGLEWMGEIYPKEGVSNFNEKFKGRVTMTTDTSTSTAYMELRSLRSDDTAVYYCARQRDYWGQGTLVTVSS
VL: DVVMTQSPLSLPVTLGQPASISCRSSQSLEYGDRYTYLEWYLQRPGQSPRLLIYGVSNRFSGVPDRFSGSGSGTDFTLKISRVEAEDVGVYYCFQATHDPNTFGQGTKLEIK
notes: Humanized, PTM de-risked, human IgG1; also called 31D9B3 VH1.1-VL2.2 hlgG1
B16: 31D9B3 VH1.1-VL2.1 hIgG1 (antibody, V domains shown)
VH: QVQLVQSGAEVKKPGASVKVSCKASGYTFTDYWVSWVRQAPGQGLEWMGEIYPKEGVSNFNEKFKGRVTMTTDTSTSTAYMELRSLRSDDTAVYYCARQRDYWGQGTLVTVSS
VL: DVVMTQSPLSLPVTLGQPASISCRSSQSLEYGSGYTYLEWYLQRPGQSPRLLIYGVSNRFSGVPDRFSGSGSGTDFTLKISRVEAEDVGVYYCFQATHDPNTFGQGTKLEIK
notes: Humanized, PTM de-risked, human IgG1; also called 31D9B3 VH1.1-VL2.1 hlgG1
B17: 31D9B3 VH1.1-VL2 hIgG1 (antibody, V domains shown)
VH: QVQLVQSGAEVKKPGASVKVSCKASGYTFTDYWVSWVRQAPGQGLEWMGEIYPKEGVSNFNEKFKGRVTMTTDTSTSTAYMELRSLRSDDTAVYYCARQRDYWGQGTLVTVSS
VL: DVVMTQSPLSLPVTLGQPASISCRSSQSLEYGDGYTYLEWYLQRPGQSPRLLIYGVSNRFSGVPDRFSGSGSGTDFTLKISRVEAEDVGVYYCFQATHDPNTFGQGTKLEIK
notes: Humanized, PTM de-risked (VH N54E), human IgG1; also called 31D9B3 VH1.1-VL2 hlgG1

This experiment addresses T1, human AMHRII (anti-Mullerian hormone …). The experiment is described as follows: FACS on CHO-K1 cells over-expressing human AMHR2. How it is done: CHO-K1 cells over-expressed AMHR2 were harvested from flasks. 100 μl of 1×10⁶ cells/ml of cells were incubated with the humanized antibodies in 3-fold serial dilutions starting from 300 nM to 0.001 nM for 30 minutes on ice. After being washed with 200 μl of FACS buffer twice, cells were incubated with secondary antibody for 30 minutes on ice. Cells were washed with 200 μl of FACS buffer twice and analyzed by FACS.
Turning to B1, a half-maximal response (EC50) required 0.68 nM and the “Top (MFI)” value was 67900 MFI.
Taken in the same sequence, the figures for B2 were 1.42 nM and 56600 MFI.
As to B3, the EC50 is 1.46 nM and the “Top (MFI)” value worked out at 49600 MFI.
Taken in the same sequence, the figures for B4 were 0.82 nM and 64600 MFI.
Take B5: the EC50 was 1.21 nM and the “Top (MFI)” value worked out at 47200 MFI.
As for B6, it took 0.65 nM to reach a half-maximal effect (EC50) and the “Top (MFI)” value was found to be 70600 MFI.
As for B7, it took 1.45 nM to reach a half-maximal effect (EC50) and the “Top (MFI)” value turned out to be 50200 MFI.
With B8, the 50% effective concentration (EC50) is 0.74 nM and the “Top (MFI)” value was 67300 MFI.
As for B9, the half-maximal effective concentration (EC50) was 0.55 nM and the “Top (MFI)” value came out at 64400 MFI.
Take B10: the concentration for a half-maximal effect (EC50) came out at 0.82 nM and the “Top (MFI)” value was found to be 66700 MFI.
Regarding B11, the concentration giving a half-maximal response (EC50) was 0.88 nM and the “Top (MFI)” value worked out at 70900 MFI.
Take B12: it took 5.52 nM to reach a half-maximal effect (EC50) and the “Top (MFI)” value was 10400 MFI.
Turning to B13, the EC50 was found to be 0.331 nM and the “Top (MFI)” value worked out at 12500 MFI.
Taken in the same sequence, the figures for B14 were 145 nM and 6580 MFI.
The corresponding values for B15 are 0.625 nM and 14500 MFI.
In the case of B16, the EC50 turned out to be 89.7 nM and the “Top (MFI)” value came out at 2170 MFI.
As to B17, the EC50 amounted to 0.875 nM and the “Top (MFI)” value amounted to 16800 MFI.
